Paper doi:10.1101/2023.08.10.552581

Experiments:
[1] = target: PAR-2 RING domain (C. elegans); test: AUC
[2] = target: PAR-2 RING domain (C. elegans); test: SEC-MALS

Kd [1]: 358 nM
stoichiometry N [2]: 2
Substance: PAR-2 RING domain (domain or fragment)
